Experimental data taken from paper PMC8428864.

Biological target: photosystem I from Cyanobacterium aponinum 0216 (one monomer of the trimer, 11 protein subunits) (Cyanobacterium aponinum 0216 (endogenous)) (UniProt K9Z0B2)
Experiment: cryo-EM structure; single-particle cryo-EM of the purified PSI trimer, C3 symmetry imposed; 30 mM Tricine–NaOH pH 8, 150 mM NaCl, 0.02% DDM; three monomers in the trimer

stoichiometry N: 3
Substance: photosystem I from Cyanobacterium aponinum 0216 (one monomer of the trimer, 11 protein subunits) (from UniProt K9Z0B2 1-750; K9Z2J7 1-738; K9Z1N0 1-81; K9Z9J3 1-39; K9Z7Y0 1-163) (complex)
